Test results taken from PMC6363164 (2019).

Biological target: Rab7-RILP complex (human, UniProt P51149 2-195; Q96NA2 242-320)
Experiment: ITC

Chain of Rab7-RILP complex (P51149 2-195 Q67L, chain 1 of 2): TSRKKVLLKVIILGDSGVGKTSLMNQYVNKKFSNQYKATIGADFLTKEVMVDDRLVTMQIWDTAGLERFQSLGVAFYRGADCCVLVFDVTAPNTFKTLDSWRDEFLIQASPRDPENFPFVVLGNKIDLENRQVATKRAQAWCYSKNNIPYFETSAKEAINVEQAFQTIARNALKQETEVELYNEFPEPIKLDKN
Chain of Rab7-RILP complex (Q96NA2 242-320, chain 2 of 2): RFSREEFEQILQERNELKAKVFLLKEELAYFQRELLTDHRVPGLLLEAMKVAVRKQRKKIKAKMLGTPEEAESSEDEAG

- Kd: 4.13 µM
B1: ORP1 ANK (5-233) (protein)
chain: AEQQLLHHARNGNAEEVRQLLETMARNEVIADINCKGRSKSNLGWTPLHLACYFGHRQVVQDLLKAGAEVNVLNDMGDTPLHRAAFTGRKELVMLLLEYNADTTIVNGSGQTAKEVTHAEEIRSMLEAVERTQQRKLEELLLAAAREGKTTELTALLNRPNPPDVNCSDQLGNTPLHCAAYRAHKQCALKLLRSGADPNLKNKNDQKPLDLAQGAEMKHILVGNKVIYK
